Key:
actin filaments [1] = target: actin filaments (UniProt P68135)
actin filaments [2] = target: actin filaments (UniProt P68135); remark: listed apart in the source
actin filaments [3] = target: actin filaments (UniProt P68135); remark: listed apart in the source

human β-cardiac myosin motor domain::GFP chimera, sequence (P12883 1-787, change not shown): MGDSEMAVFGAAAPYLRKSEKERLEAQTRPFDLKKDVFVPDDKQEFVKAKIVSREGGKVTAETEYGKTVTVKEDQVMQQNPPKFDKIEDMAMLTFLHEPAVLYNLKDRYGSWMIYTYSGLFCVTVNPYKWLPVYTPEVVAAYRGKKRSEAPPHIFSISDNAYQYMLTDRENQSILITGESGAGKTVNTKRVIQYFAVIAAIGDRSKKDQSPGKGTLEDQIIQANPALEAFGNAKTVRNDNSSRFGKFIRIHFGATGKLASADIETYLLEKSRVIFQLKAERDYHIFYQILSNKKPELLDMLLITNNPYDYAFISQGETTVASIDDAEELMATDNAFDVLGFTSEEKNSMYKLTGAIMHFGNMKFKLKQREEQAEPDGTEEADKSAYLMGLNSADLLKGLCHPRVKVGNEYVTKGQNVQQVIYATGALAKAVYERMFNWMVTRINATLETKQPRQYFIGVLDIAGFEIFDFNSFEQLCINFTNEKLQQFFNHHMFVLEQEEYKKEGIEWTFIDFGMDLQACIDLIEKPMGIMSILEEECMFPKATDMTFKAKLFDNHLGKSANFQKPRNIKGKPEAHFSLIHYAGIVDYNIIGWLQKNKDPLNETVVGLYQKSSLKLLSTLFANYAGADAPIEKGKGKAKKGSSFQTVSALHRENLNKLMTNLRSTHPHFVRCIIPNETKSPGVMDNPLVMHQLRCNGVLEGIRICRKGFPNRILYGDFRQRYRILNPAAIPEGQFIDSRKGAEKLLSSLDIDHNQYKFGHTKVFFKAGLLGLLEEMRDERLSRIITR
human β-cardiac heavy meromyosin, sequence (P12883 1-1138): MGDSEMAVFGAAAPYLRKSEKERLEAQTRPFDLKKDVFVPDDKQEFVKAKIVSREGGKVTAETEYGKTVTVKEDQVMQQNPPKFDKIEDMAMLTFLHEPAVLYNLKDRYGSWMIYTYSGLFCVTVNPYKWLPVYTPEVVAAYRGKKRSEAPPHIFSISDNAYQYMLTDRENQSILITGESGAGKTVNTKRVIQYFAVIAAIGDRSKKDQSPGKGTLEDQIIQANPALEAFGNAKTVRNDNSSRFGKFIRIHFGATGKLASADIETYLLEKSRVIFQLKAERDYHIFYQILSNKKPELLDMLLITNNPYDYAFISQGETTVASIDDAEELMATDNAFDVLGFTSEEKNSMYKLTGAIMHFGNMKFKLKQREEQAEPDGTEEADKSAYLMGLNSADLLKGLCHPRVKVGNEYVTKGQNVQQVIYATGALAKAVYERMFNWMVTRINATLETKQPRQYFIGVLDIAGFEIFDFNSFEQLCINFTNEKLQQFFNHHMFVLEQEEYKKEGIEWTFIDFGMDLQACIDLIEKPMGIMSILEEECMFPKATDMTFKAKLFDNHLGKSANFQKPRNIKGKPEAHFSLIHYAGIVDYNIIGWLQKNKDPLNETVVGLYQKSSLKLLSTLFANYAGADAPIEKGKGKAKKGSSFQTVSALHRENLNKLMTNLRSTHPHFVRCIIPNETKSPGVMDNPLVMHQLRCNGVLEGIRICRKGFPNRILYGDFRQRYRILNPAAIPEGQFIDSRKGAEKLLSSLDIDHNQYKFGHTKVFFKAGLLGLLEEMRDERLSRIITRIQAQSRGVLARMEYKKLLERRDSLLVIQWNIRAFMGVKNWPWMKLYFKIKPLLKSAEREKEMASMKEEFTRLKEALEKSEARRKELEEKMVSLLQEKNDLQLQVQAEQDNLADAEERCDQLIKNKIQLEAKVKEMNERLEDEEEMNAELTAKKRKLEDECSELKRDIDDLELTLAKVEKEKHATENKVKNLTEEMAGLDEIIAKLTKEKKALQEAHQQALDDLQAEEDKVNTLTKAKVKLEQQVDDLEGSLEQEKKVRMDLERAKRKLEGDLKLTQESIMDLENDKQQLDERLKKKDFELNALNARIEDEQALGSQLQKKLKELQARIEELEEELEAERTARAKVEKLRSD

human β-cardiac heavy meromyosin (from UniProt P12883 1-1138) (domain or fragment)
actin filament velocity in the in vitro motility assay (cHMM bound directly to nitrocellulose, 32 °C), without OM and with OM titrated from 0.42 to 12.5 μM; slowed 15–20-fold by OM (actin filaments [1]): 0.8 μm s^−1

human β-cardiac myosin motor domain::GFP chimera (from UniProt P12883 1-787) (domain or fragment)
sliding actin filament velocity in the in vitro motility assay (cMD held by anti-GFP, 32 °C), without OM and with OM titrated from 0.42 to 12.5 μM; slowed 15–20-fold by OM (actin filaments [2]): 0.8 μm s^−1 | K ATPase for actin activation of the steady-state ATPase of the cMD (0.06 μM cMD, 0–100 μM actin), with 100 μM OM (actin filaments [3]): 5.4 µM | K ATPase for actin activation of the steady-state ATPase of the cMD (0.06 μM cMD, 0–100 μM actin), without OM (actin filaments [3]): 22.5 µM

Source: PMC4918383
